For assay [1], the target named is mouse TIM-3, membrane bound (mouse) (UniProt Q8VIM0). Put plainly: binding to activated mouse T cells, compared with TIM3.18 binding to human TIM-3; method not described.
Assay [2] has the same target. Put plainly: binding to activated mouse T cells; method not described.

Chain of mouse TIM-3, membrane bound (mouse) (Q8VIM0 20-281): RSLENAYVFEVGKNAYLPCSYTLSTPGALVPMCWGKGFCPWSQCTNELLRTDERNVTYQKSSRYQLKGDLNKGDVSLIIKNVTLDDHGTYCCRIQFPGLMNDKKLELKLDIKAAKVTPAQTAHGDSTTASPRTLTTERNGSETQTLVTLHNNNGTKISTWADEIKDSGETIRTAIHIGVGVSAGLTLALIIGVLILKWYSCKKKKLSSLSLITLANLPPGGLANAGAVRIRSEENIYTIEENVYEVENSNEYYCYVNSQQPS

As a reminder, the EC50 is the concentration giving half of the maximal effect. The low end stands for higher potency in that assay, the high end for lower potency in that assay. In turn, “RMT3-23, rat anti-mouse TIM-3 antibody (Bio-X-Cell)” had a fold weaker EC50 than TIM3.18 on human TIM-3 in assay [1] of 17 fold. Besides, the half-maximal effective concentration (EC50) in assay [2] worked out at 1.7 nM.

Source of the values: US20250326841A1.
